The record followed here is paper doi:10.1101/2021.04.08.438944.

Test [1] addresses DNAJB14-ΔDUF tagged with FLAG (human). As to the kind of experiment: co-IP.
For test [2] the target is unchanged. In words: co-IP. This is another data set of the same source.

DNAJB14-ΔDUF tagged with FLAG (human), sequence (Q8TBM8 whole entry, stated change not applied): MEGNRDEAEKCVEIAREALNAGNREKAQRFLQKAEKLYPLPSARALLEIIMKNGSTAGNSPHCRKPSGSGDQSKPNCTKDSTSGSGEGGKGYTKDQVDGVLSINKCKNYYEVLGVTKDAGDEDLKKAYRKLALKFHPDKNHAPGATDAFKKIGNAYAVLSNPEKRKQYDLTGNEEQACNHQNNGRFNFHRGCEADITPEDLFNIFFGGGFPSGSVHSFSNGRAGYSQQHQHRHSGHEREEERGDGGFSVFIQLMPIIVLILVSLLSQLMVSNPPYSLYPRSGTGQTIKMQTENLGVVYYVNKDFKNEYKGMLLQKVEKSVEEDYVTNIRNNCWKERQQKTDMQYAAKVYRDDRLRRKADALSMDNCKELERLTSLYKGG

The molecule “HSP70 (from UniProt P0DMV8 1-641) (natural protein)” gave an interaction left relative to DNAJB14-FL (co-IP densitometry) in test [1] of 50%.

B1: DNAJB12-FL tagged with mOrange (natural protein)
chain: MESNKDEAERCISIALKAIQSNQPDRALRFLEKAQRLYPTPRVRALIESLNQKPQTAGDQPPPTDTTHATHRKAGGTDAPSANGEAGGESTKGYTAEQVAAVKRVKQCKDYYEILGVSRGASDEDLKKAYRRLALKFHPDKNHAPGATEAFKAIGTAYAVLSNPEKRKQYDQFGDDKSQAARHGHGHGDFHRGFEADISPEDLFNMFFGGGFPSSNVHVYSNGRMRYTYQQRQDRRDNQGDGGLGVFVQLMPILILILVSALSQLMVSSPPYSLSPRPSVGHIHRRVTDHLGVVYYVGDTFSEEYTGSSLKTVERNVEDDYIANLRNNCWKEKQQKEGLLYRARYFGDTDMYHRAQKMGTPSCSRLSEVQASLHG
B1 returned a fold lower than DNAJB14-FL (co-IP densitometry) in test [2] of 3 fold lower.
